In this experiment the target is T1, human c-Met/Fc fusion protein (R&D Systems) (human, UniProt P08581 25-932).
T1 construct: Bought reagent, coated on the ELISA plate at 2 ug/mL; also called human c-Met/Fc protein; not shown: Fc part of the bought fusion protein
The experiment can be described thus: ELISA, human c-Met/Fc coated at 2 ug/mL, hybridoma culture supernatant, anti-mouse IgG-HRP. The procedure: Human c-Met/Fc fusion protein was seeded in an amount of 50 μL (2 μg/mL)/well to microtiter plates and allowed to adhere to the surface of each well. The antibody that remained unbound was removed by washing.
The hybridoma cell culture obtained in Reference Example 1.1.2 was added in an amount of 50 μL to each well of the plates and incubated for 1 hour. The cells remaining unreacted were washed out with a sufficient amount of Tris-buffered saline and Tween 20 (TBST). Goat anti-mouse IgG-horseradish peroxidase (HRP) was added to the plates and incubated for 1 hour at room temperature. The plates were washed with a sufficient amount of TBST, followed by reacting the peroxidase with a substrate (OPD). Absorbance at 450 nm was measured on an ELISA reader.
A general note: An ELISA detects its analyte on a solid surface through an enzyme-linked reagent.

T1 sequence (P08581 25-932 limits assumed): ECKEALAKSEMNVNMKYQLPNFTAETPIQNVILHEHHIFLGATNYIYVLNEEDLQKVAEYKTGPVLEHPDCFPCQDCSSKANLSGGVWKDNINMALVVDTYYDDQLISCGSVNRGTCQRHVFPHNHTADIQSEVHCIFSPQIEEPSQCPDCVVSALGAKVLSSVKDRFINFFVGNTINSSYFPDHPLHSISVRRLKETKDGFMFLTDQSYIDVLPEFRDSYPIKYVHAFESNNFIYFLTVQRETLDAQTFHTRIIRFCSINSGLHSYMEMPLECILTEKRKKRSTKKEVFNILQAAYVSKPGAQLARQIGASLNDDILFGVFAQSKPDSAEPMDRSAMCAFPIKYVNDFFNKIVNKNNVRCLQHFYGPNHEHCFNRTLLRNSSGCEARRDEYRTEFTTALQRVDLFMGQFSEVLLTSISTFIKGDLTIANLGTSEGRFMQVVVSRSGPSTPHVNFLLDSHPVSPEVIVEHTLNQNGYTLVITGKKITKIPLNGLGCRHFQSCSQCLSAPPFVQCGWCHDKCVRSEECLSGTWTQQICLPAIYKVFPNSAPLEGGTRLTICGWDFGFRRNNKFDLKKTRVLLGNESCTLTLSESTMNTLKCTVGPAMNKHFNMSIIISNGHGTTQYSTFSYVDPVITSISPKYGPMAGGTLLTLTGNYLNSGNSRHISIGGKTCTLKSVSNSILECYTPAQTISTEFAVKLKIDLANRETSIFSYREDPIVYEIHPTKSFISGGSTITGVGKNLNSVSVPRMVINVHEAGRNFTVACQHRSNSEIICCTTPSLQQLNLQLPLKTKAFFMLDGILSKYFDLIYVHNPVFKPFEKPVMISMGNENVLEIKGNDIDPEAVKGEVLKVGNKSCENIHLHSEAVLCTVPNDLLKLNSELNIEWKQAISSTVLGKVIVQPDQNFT

B1: AbF46, mouse monoclonal antibody to c-Met (hybridoma KCLRF-BP-00220) (antibody, V domains shown)
VH: EVKLVESGGGLVQPGGSLRLSCATSGFTFTDYYMSWVRQPPGKALEWLGFIRNKANGYTTEYSASVKGRFTISRDNSQSILYLQMDTLRAEDSATYYCARDNWFAYWGQGTLVTVSA
VL: DILMTQSPSSLTVSAGEKVTMSCKSSQSLLASGNQNNYLAWHQQKPGRSPKMLIIWASTRVSGVPDRFIGSGSGTDFTLTINSVQAEDLAVYYCQQSYSAPLTFGAGTKLELK
notes: In the screening ELISA it stood as hybridoma culture supernatant; The single clone chosen by this screen produces AbF46; also called mouse antibody AbF46
Turning to B1, the binding result is listed as “binds”.
